Assay [1] addresses CA-A14C E45C (disulfide-crosslinked CA tubes; also assembled into cones with IP6) (HIV-1). Briefly: negative-stain EM of NuPODs mixed with CA assemblies.
Assay [2] concerns the target CA-N21C A22C (CA spheres) (HIV-1). The description is as above.
Assay [3] shares this target. Briefly: co-sedimentation.

Drawing on paper PMC10121901, this text covers percent of NuPODs bound to CA spheres and CA tubes, fold preference for binding to spheres over tubes (NuPODs in excess) and percent of NuPODs in the supernatant (with the CA spheres) for two substances.

On to “Nup358^(RBD4-CycH, aa 2911–3225) (from UniProt P49792 2911-3224) (domain or fragment)”, for which the percent of NuPODs bound to CA spheres and CA tubes at the same time in assay [1] and in assay [2] was 20 to 50% each time.
For the substance “MBP-Nup153^(CTD, aa 896–1475) (from UniProt P49790 896-1475) (domain or fragment)”, in assay [2], the fold preference for binding to spheres over tubes (NuPODs in excess) turned out to be 60 fold. Besides, the percent of NuPODs in the supernatant (with the CA spheres) in assay [3] is 95%.
